From publication PMC8861093 (2022)

Target: WDR5 (Homo sapiens, UniProt P61964)
Assay: biolayer interferometry

Question: With LNPHGAARAEVYLR [MLL4Win] as the binder, how does the Kd read?
Answer: 460 nM
